The record followed here is the nanobody polyreactivity screen of Harvey et al. (2022).

The data set is described as follows: yeast display, Sf9 membrane polyspecificity reagent, FACS + sequencing; frameworks hold sequencing errors. Put shortly: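 Using colony PCR, genes from sorted yeast display clones were amplified, then sequenced on MiSeq at 2 × 250 and filtered by CDR length. The clones had been stained with 10% biotinylated, detergent-solubilized Sf9 membrane reagent for 1 hour at 4 °C and sorted by FACS into low and high (top ~1%) gates on anti-HA and streptavidin fluorescence. Polyreactivity labels come from the gate of origin.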
Regarding “QVQLVESGGGLVQAGGSLRLSCAASGFIIRTYAMGWYRQAPGKERELVAAITGRGGTTYYADSVKGRFTISRDNAKNTVDLQMNSLKPEDTAVYYCAARSRDYNYNPYDYWGQGTQVTVSS”, the “polyreactivity (PSR sort gate)” value is “high polyreactivity”. Turning to “QVQLVESGGGLVQAGGSLRLSCAASGITFRFYAMGWYRQAPGKERELVAVISRGGGTTYYADSVKGRFTISRDNAKNTVYLQMNSLKPADTSVYYCAADYYYVQSELGYDYWGQGTQVTVSS”, the “polyreactivity (PSR sort gate)” value is on record as “high polyreactivity”. In the case of “QGQLVESGGGLVQAGGSLRLSCAASGSSLPYYAMGSYRQAPGKERELVATITDGTDTYYADSVKARFTISRDNAKNTVFLQMNSLKTDDSAVYYCNAYGYVYFLHEDYWGQGTQVTVSS” it was “low polyreactivity”; in that of “QVQLVESGGGVVQAGGSLRLSCAASGSTCSWYVMGWYRQAPGKERELVASISRSGGSTYYADSVKGRFTISRDNAKNTVYLQMNSLKPEDTAVYYCAARQAGYSGRKLYYWAQGTQVTVSS”, “low polyreactivity”.

With “QVQLVESGGGLVQAGGSLRLSCDASGRIFASNAMGWYRQAPGKERELVATIRRSGGSTYYADSVKGRFTISRDNAKNTVYLQMNSLKPEDTAVYYCNARMYGGYGWIYDYWRQGTQVTVSS”, the “polyreactivity (PSR sort gate)” value is listed as “high polyreactivity”. As to “LVHLQESGGGLVQAGGSLRLSCAASGTISPAGYMGWYRPAPGKERELVASINVGGSTNYADSVKGRFTISRDNAKNTVYLQLNCLKPEVNAVYYCAVWGRYRLQLSYWGQGTQVTVSS”, the “polyreactivity (PSR sort gate)” value was “low polyreactivity”. Consider “QVHLVDSGGGKVQAGGSLRLSCAASGSIFYWNAMGWYRQAPGKERELVATITITTSTNYADSVKGRFTISRDNATHSVYLQMNSMKPEDTAVYYCNAGAPYRYLDEYNYWGQGTQVTVSS”, for which the “polyreactivity (PSR sort gate)” value is reported as “low polyreactivity”. Take “QVQLVESGGGLVQAGGSLRLSCAASGRTFPINTMGWSRQAPGKEREFVAAITLGGRTYYADSVKGRFTISRDNAKNTVYLQMNSLKPEDTAVYYCAVAQPGYWLYRHFLPGSDYWGQGTQVTVSS”: the “polyreactivity (PSR sort gate)” value is listed as “high polyreactivity”. With “QVQLVESGGGLVHAGGSLRLSCASSGRIFQYNTMGWYRQAPGKERELVAGISSGGSTNYADSVKGRFTISRDNAKNTVYLQMNSLKPEDTAVYYCAARAKRYNVRFDYWGQGTQVTVSS”, the “polyreactivity (PSR sort gate)” value is on record as “high polyreactivity”.

As for “QVQLVESGGGLVQAGGSLRLSCAASGSTFSYYAMGWYRQAPGKEREFVAAISSSGGRTYYADSVKGRFTISRDNAKNTVYLQMNSLKPEDTAVYYCNAYYLAEYDYWGQGTQVTVSS”, the “polyreactivity (PSR sort gate)” value is “high polyreactivity”.

Turning to “QVQLVESGGGLVQAGCSLRLSCASSGRTFSEYAMGWYRQAPGKERELVAAISKGGGSTYYADSVKGRCTISRDNAKNTVYLQMNSLKPEDNAVYYCAKSSHAREYYYWGQGTQVTVSS”, the “polyreactivity (PSR sort gate)” value was “low polyreactivity”.

With “QVQLVESGGGLVQAGGSLRLSCAASGITLYRYVMGWYRQAPGKERELLADISGRGTSTYYADSVKGRFTISRDNAKNTVYLQMNSLNAEDTAVYYCNAEFTKSGALVIPYTYYYAEDYWGQGSQVTVSS”, the “polyreactivity (PSR sort gate)” value is “low polyreactivity”. As to “QVQLVESGGGLFKAGGSLRLSCAASGLIFWGYTMAWSRQAPGKERELVAAISRRGGRTYYAASVMGRFTISRDNAKNTVYLQMNTLKPEDTAVDYCKADITSSGPKSDYWGQGTQVTVSS”, the “polyreactivity (PSR sort gate)” value is recorded as “high polyreactivity”. For the sequence “QVQLVESGGGLVQAGGRLRLSCAASGSTFSFNAMGWYRQAPGKERELVAAIRVSSGTTYYADSVKGRFTISRDNAKNTVYLQMNSLKPEDTAVYYCAARYYYDWRQYGYWGQGTQVTVSS”, the “polyreactivity (PSR sort gate)” value was “high polyreactivity”.

Take “QVQLEESGGGLVQAGGSLRLSCAASGSTFTVNGMGWYRQAPGKERELVAAIDGGDGSTYYADSVKGRFTISRDNAKNTVYLQMNSLKPEDTAVYYCAADTPCFTQYGYWGQGTQVTVSS”: the “polyreactivity (PSR sort gate)” value is “low polyreactivity”. With “QVQLEESGGGLVQAGGSHRLSCAASGFTFIDNAMGSYRQAPGKERELVAAISISGGRTYYADSVKGRFTISRDNAKNTVYLQMNSLKPEDTAVYYCAAGKHRRDDYWGQGTQVTVSS”, the “polyreactivity (PSR sort gate)” value is “high polyreactivity”.

Regarding “QVQLVESGGGLVQAGGSLRLSCAASGFTIWRYAMGWYRQAPGKERELVAAISRGGSTNYADSVKGRFTISRDNAKKTVYLQMNSLKPEDTAGYYCAASVQYRRLKKFYYWGQGTQVTVSS”, the “polyreactivity (PSR sort gate)” value is “high polyreactivity”. For the sequence “QVQLVESGGGLVQAGGSLRFSCAASGRILFSYGAMGLYRQAPGRERELDAATSYSGGSTYYADSVKGRFTISRDKAKKTVYLQMNSLKPEETAVYYCDPSSIVYRHYYWGQGTQVTLSS”, the “polyreactivity (PSR sort gate)” value is “high polyreactivity”. For the sequence “QVQLVESGGGLVQAGGSLRLSCAASGRTFNLNAMGWYRQAPGKEREFVAAISNSGVRTYYADSVKGRFTISRDNAKNTVYLQMNSLKPVDTAVYYCARTYQVGDSIDDYWGQGTQVTVSS”, the “polyreactivity (PSR sort gate)” value is recorded as “low polyreactivity”. As to “QVQLVESGGGLVQAGGSLRLSCAASGRIFRQNAMGWYRQAPGKERELVAAISRSGGSTYYADSVKGRFTISRDNAKNTVYLQMNSLKPEDTAVYYCAADVHTPALYTYAAGDYWGQGTQVTVSS”, the “polyreactivity (PSR sort gate)” value is reported as “low polyreactivity”.

Regarding “QVQLVESGGGLVQAGGSLRLSCAASGYTFRVYTMGWYRQAPGTERELVAAISRRGSRTYYADSVKGRFTISRDNAKNTVYLQMNSLKPEDTAVYYCAAGIPYPDDYWGQGSQVTVSS”, the “polyreactivity (PSR sort gate)” value is “high polyreactivity”. On to “QVQLVESGGGLVQAGGSLRLSCAASGSIFPVYAMGWYRQAPGKERELVAAITWRSGSTYYADSVKGRFTISRDNAKNTVYLQMNSLKPDDTAVYYCAKVPTYRFDHWGQGTQVTVSS”, for which the “polyreactivity (PSR sort gate)” value is given as “high polyreactivity”.

For the sequence “QVQLVESGGGLVQAGGSLRLSCAASGRTCGKYAMGWYRQAPGKERELVATISRSGGSTYYADSVKGRFTISRDTAKYTVYLQMNSLKPEDTAVYYCNAVTSRYIWPPVLDRYHYWGQGTQVTLSS”, the “polyreactivity (PSR sort gate)” value was “high polyreactivity”.

Regarding “QVQLVESGGGLVQAGGSLRLSCAASGFTLARNAMVWYRQAPGKERELVAANSWSGGTTYYADSVKGSFTISRDNAKNTVYLQMNSLKPEDTAVYYCNTASWRAQYYYWGQGNQVTVSS”, the “polyreactivity (PSR sort gate)” value is listed as “high polyreactivity”. The entry for “QFQLVESGGGLVQAGGSLRLSCAASRRTFTYYDMGWYRQAPGNEGELVSAISRRGGSTYYADSVKGRFTISRDNAKNTVYFQMNSLKPEDTAVYYCAAEVRLFSYTYSFFRYEYWGQGTHVTVSS” is “high polyreactivity”. Regarding “QVQLVESGGGLVQAGGSLRLSCAASGRIFDGYDMGWYRQAPGKERELVAAITSVGSTNYADSVKGRFTISRDNAKNTVYLQMNSLKPEDSAVYYCAAVLYVFYDEYGYWEYFSQYDYWGQGTQVTVSS”, the “polyreactivity (PSR sort gate)” value is listed as “low polyreactivity”. The entry for “QVQLVDSGRGFVQAGGSLRLSCAASGSTYPGNEMGRSRQAPGKESELVAAIRWSGGSTYYADSVKGRFTISRDNAKNNVYLQMNSLKPEDTAVYYCAADYLIPDTYLFQAYVGFEYWGQGTLVTVSS” is “low polyreactivity”; for “QVQLVESGGGLVQAGGSLRLSCADSGSTFVSYAMGWYRQAPGKERELVAVAISWSGGNTYYADSVKGRFTISRDNAKNTVYLQMNSLKPEDTAVYYCAAYGTTGVYRGPGYDYWGQGTQVTVSS” it is “low polyreactivity”. Consider “QVQLVESGGGLVQAGGSLRLSCAASGIIFNVNAMGWYRQAPGKERELVASINSGSTYYADSVKGRFTISRDNAKNTVYLQMNSLKPEDTAVYYCATGARSPPWGRSKKRTYYYWGQGTQVTVSS”, for which the “polyreactivity (PSR sort gate)” value was “high polyreactivity”.

Take “QVQLVESGGGLVQAGGSLRLSCAASGFTFWRYTMGWYRQAPGKERELVATIRRGTSTNYADSVKGRFTISRDNAKNTVYLQMNSLKPEDTAVYYCAADPWRYYVEYDYWGQGTQVTVSS”: the “polyreactivity (PSR sort gate)” value was “high polyreactivity”. Take “QVQLVESGGGLVQAGGSLRLSCAASGSIFHANAMGWYRQAPGKERELVAVISQGGGSTYYADSVKGRFTISRDNAKNTVYLQMNSLKPEDTAVYYCAAYYYYSAYGDDYWGQGTQVTVSS”: the “polyreactivity (PSR sort gate)” value is on record as “high polyreactivity”.

Regarding “QVHLVESGGGLVQAGGSLRLSCAASGRTFYRYAMGWYRQAPGKERELVAAINTGGSTYYADSVKGRFTISRDNAKTTVYLQMNSLKPEVTAVYYCAAEAASWWGYGYWGQGTKVTVSS”, the “polyreactivity (PSR sort gate)” value is “high polyreactivity”.

For the sequence “QVQLVESGGGLVQAGGSLRLSCAASGIIFEGNVMGWYRHAPAKERELVAAITSDTSTNYADSVKGRFTISRDNAKNTVYLQMNSLKPVDTAVYYFNAVICTDYYYSGTAEFYYWGQGTQVTVSS”, the “polyreactivity (PSR sort gate)” value is on record as “low polyreactivity”. In the case of “QVQLVESGGGLVQAGGSLRLSCAASGITFALYAMGWYRKAPGKERELVAAISYSGGRTYYADSVKGRFTISRDTAKNTVYLQMNSLKPEDTAVYYCAAGGSGSGPYGYGYWGQGTQVTVSS” it was “high polyreactivity”. As for “QVQLVESGGALVQAGGSLRLSCAASGCIFAPYAMGWYRQAPGKERELVADITEDTGITYYADSVKGRFTISRDNAKNNVYLHMNSLKPVDTAVYYCNAEFYFYDYWGQGTQVTVSS”, the “polyreactivity (PSR sort gate)” value is “low polyreactivity”. Take “QVQLVESGGGLVQAGGSLRLSCAASGSTFTKNAMGWYRQAPGKERELVADISFSGGSTYYADSVKGRFTISRDNAKNTVYLQTNRLKPEDTAVYDCAADRHRALPRFDDWGQGTQVTVAS”: the “polyreactivity (PSR sort gate)” value is listed as “low polyreactivity”. As to “QVQLVESGGGLVQAGGSLRLSCAAYGLTFYGNAMGWYRQAPGKERELVAAISRGGRTYYADSVKGRFTISRDNAKKTVYLQRNSLKPEDTAVYYCATVVSRVKQPFDMDYWGQGTQVTVSA”, the “polyreactivity (PSR sort gate)” value is “low polyreactivity”.

Consider “QVQLVESGGGLVQAGGSLRLSCAASGRIFPGNAMGWYRQAPGKERELVADITSGGSTNYADSVKGRFTISRDNAKNTVYLQMNSLKPEDTAVYYCAVRQIYQTSDHRLQYDYWGQGTQVTVSS”, for which the “polyreactivity (PSR sort gate)” value is recorded as “low polyreactivity”. The entry for “QVQLVESGGGLVQAGGSLRLSCAASGSTSYSYMGWYRQAPGKERELVAAIDESGGSTYYADSVKGRFTISRDNAKNTVYLQMNSLKPEDTAVYYCNRRYGRSYRWGYGYWGQGTQVTVSS” is “low polyreactivity”. In the case of “QVQLVESGGGLVQAGGSLRLTCAAYGRIFRYYPMGWYRQAPGKERDLVAAINWRGTSTSYADSVKGRFTISRDIAKNTVYLQMNSLKPEETAVYYCARVAWSESDWQKMDYWGQGTQVTVSS”, the “polyreactivity (PSR sort gate)” value was “high polyreactivity”.
